The source of these data is doi:10.1101/2020.03.02.974154 (bioRxiv, 2020).

This series concerns the molecule itself. Nature of the series: cryo-EM structure.

B1: full-length chicken acid-sensing ion channel 1a (cASIC1a) (natural protein, Gallus gallus, UniProt Q1XA76 1-527, looked up)
chain: MMDLKVDEEEVDSGQPVSIQAFASSSTLHGISHIFSYERLSLKRVVWALCFMGSLALLALVCTNRIQYYFLYPHVTKLDEVAATRLTFPAVTFCNLNEFRFSRVTKNDLYHAGELLALLNNRYEIPDTQTADEKQLEILQDKANFRNFKPKPFNMLEFYDRAGHDIREMLLSCFFRGEQCSPEDFKVVFTRYGKCYTFNAGQDGKPRLITMKGGTGNGLEIMLDIQQDEYLPVWGETDETSFEAGIKVQIHSQDEPPLIDQLGFGVAPGFQTFVSCQEQRLIYLPPPWGDCKATTGDSEFYDTYSITACRIDCETRYLVENCNCRMVHMPGDAPYCTPEQYKECADPALDFLVEKDNEYCVCEMPCNVTRYGKELSMVKIPSKASAKYLAKKYNKSEQYIGENILVLDIFFEALNYETIEQKKAYEVAGLLGDIGGQMGLFIGASILTVLELFDYAYEVIKHRLCRRGKCRKNHKRNNTDKGVALSMDDVKRHNPCESLRGHPAGMTYAANILPHHPARGTFEDFTC
Take B1: the “stoichiometry N” value came to 3.

Usually stoichiometry N stands for the number of molecules, sites or subunits per partner or assembly.
